The target in experiment [1] is T1, E. coli wild-type SHMT, GST fusion protein (E. coli, UniProt P0A825 1-417).
T1 construct: Overexpressed in E. coli as GST fusion protein, purified, coated at 2 ug/ml on the ELISA plate; not shown: GST tag
T1 sequence: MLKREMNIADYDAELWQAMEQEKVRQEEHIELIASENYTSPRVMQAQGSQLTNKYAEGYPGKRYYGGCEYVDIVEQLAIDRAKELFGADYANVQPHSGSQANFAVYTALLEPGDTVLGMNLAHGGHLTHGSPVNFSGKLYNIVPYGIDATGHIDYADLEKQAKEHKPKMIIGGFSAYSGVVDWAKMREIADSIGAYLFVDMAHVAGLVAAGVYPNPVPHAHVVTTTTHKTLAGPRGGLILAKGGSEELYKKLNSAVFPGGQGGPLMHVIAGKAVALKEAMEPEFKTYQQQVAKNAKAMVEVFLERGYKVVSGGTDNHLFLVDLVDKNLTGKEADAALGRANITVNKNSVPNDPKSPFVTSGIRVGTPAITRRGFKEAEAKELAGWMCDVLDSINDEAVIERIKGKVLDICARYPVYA
Put plainly: ELISA, GST fusion protein coated at 2 ug/ml, dilution series of antibody. For orientation: ELISA stands for enzyme-linked immunosorbent assay.

Another experiment deals with T2, E. coli iPGM (E. coli, UniProt P37689 1-514, limits assumed).
T2 sequence (looked up): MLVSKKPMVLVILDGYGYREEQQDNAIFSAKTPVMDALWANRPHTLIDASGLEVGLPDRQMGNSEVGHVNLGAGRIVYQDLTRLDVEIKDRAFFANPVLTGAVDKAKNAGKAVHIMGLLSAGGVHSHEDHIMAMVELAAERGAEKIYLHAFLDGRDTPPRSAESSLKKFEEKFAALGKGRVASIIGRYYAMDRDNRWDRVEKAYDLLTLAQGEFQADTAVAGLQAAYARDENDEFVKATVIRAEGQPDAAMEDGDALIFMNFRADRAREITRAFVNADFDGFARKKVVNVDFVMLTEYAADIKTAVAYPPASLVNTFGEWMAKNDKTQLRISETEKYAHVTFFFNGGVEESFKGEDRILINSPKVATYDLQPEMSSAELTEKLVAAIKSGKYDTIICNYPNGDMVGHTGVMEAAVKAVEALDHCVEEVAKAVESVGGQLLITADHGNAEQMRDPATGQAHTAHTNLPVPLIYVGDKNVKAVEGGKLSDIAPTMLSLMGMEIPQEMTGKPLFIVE
Briefly: Western blot.

A further experiment deals with T3, E. coli SHMT (25-45) (E. coli).
T3 construct: Expressed as GST fusion, cleaved with HRV 3C protease and purified for crystallisation; also called E. coli SHMT antigen
T3 peptide: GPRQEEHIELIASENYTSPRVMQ
Briefly: X-ray crystal structure of the complex.

Experiment [2] deals with T4, C. difficile iPGM (486-509) (Clostridium difficile).
T4 construct: the blank is left out; also called C. difficile iPGM antigen
T4 peptide: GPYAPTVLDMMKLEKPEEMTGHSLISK
Put plainly: X-ray crystal structure of the complex.

B1: RS_H007_L001 (antibody, V domains shown)
VH: EVQLQQSGSELVKSGASVKLSCTVSGFNFTNYYIHWVRQRTEQGLEWIGRIDPENNQTTYAPKFQGKATMTADTSSNTAYLQLTSLTSEDTAVYYCARSTVLDYWGHGTTLTVSS
VL: DVLMTQSPASLSVSLGDRATISCRASQSIVHTNGNTYLEWYLQKPGQSPKLLIYKVSNRFSGVPDRFSGSGSGTDFILKISRVEAEDLGVYYCFQGSHVPPTFGGGTKLEVK
B1: the binding result in experiment [1] was “binds”.

B2: W27G2 antibody (mouse W27G2 hybridoma-producing IgA antibody) (antibody, V domains shown)
VH: EVQLQQSGSELVKSGASVKLSCTVSGFNFTDYYIHWVRQRTEQGLEWIGRIDPENDETTYAPKFQGKATMTADTSSNTAYLQLTSLTSEDTAVYYCARSTVLDYWGHGTTLTVSS
VL: DVLMTQTPLSLPVSLGDQASISCRASQSIVHTNGNTYLEWYLQKPGQSPKLLIYKVSNRFSGVPDRFSGSGSGTDFILKISRVEAEDLGVYYCFQGSHVPPTFGGGTKLEVKR
notes: Hybridoma-producing IgA; Both names are treated as one molecule here; W27G2CHT is the hydroxyapatite crude preparation, W27G2GF the gel filtration multimer fraction; also called W27 antibody; W27G2CHT
In the case of B2, the binding result in the experiment with E. coli iPGM is on record as “no binding”; in experiment [1], “binds”.

B3: RS_H000_L000GR Fab (Fab, V domains shown)
VH: EVQLQQSGSELVKSGASVKLSCTVSGFNFTDYYIHWVRQRTEQGLEWIGRIDPENDETTYAPKFQGKATMTADTSSNTAYLQLTSLTSEDTAVYYCARSTVLDYWGHGTTLTVSS
VL: DVLMTQTPLSLPVSLGDQASISCRASQSIVHTNGNTYLEWYLQKPGQSPKLLIYKVSNRFSGVPDRFSGSGSGTDFILKISRVEAEDLGVYYCFQGSHVPPTFGGGTKLEVK
notes: also called IgG W27 Fab
As for B3, the binding result (in the experiment with E. coli SHMT (25-45); in experiment [2]) was “binds” each time.

B4: RS_H007_L004 (antibody, V domains shown)
VH: EVQLQQSGSELVKSGASVKLSCTVSGFNFTNYYIHWVRQRTEQGLEWIGRIDPENNQTTYAPKFQGKATMTADTSSNTAYLQLTSLTSEDTAVYYCARSTVLDYWGHGTTLTVSS
VL: DVLMTQSPASMSVSLGDRATISCRSSQSIVHTNGNTYLEWYLQKPGQSPKLLIYKVSNRFSGVPDRFSGSGSGTDFILKISRVEAEDLGVYYCFQGSHVPPTFGGGTKLEVK
In the case of B4, the binding result in experiment [1] was “binds”.

B5: RS_H007_L002 (antibody, V domains shown)
VH: EVQLQQSGSELVKSGASVKLSCTVSGFNFTNYYIHWVRQRTEQGLEWIGRIDPENNQTTYAPKFQGKATMTADTSSNTAYLQLTSLTSEDTAVYYCARSTVLDYWGHGTTLTVSS
VL: DVLMTQSPASLSVSLGDRVTISCRASQSIVHTNGNTYLEWYLQKPGQSPKLLIYKVSNRFSGVPDRFSGSGSGTDFILKISRVEAEDLGVYYCFQGSHVPPTFGGGTKLEVK
Turning to B5, the binding result in experiment [1] was “binds”.

B6: RS_H000_L001 (antibody, V domains shown)
VH: EVQLQQSGSELVKSGASVKLSCTVSGFNFTDYYIHWVRQRTEQGLEWIGRIDPENDETTYAPKFQGKATMTADTSSNTAYLQLTSLTSEDTAVYYCARSTVLDYWGHGTTLTVSS
VL: DVLMTQSPASLSVSLGDRATISCRASQSIVHTNGNTYLEWYLQKPGQSPKLLIYKVSNRFSGVPDRFSGSGSGTDFILKISRVEAEDLGVYYCFQGSHVPPTFGGGTKLEVK
notes: recombinant multimeric IgA co-expressed with J chain (H:L:J = 2:2:1); mainly dimers by SDS-PAGE; also called rW27
For B6, the binding result in experiment [1] is “binds”.

B7: RS_H000_L005 (antibody, V domains shown)
VH: EVQLQQSGSELVKSGASVKLSCTVSGFNFTDYYIHWVRQRTEQGLEWIGRIDPENDETTYAPKFQGKATMTADTSSNTAYLQLTSLTSEDTAVYYCARSTVLDYWGHGTTLTVSS
VL: DVLMTQSPASLSVSLGDRATISCRSSQSIVHTNGNTYLEWYLQKPGQSPKLLIYKVSNRFSGVPDRFSGSGSGTDFILKISRVEAEDLGVYYCFQGSHVPPTFGGGTKLEVK
Turning to B7, the binding result in experiment [1] is “binds”.

B8: RS_H007_L005 (antibody, V domains shown)
VH: EVQLQQSGSELVKSGASVKLSCTVSGFNFTNYYIHWVRQRTEQGLEWIGRIDPENNQTTYAPKFQGKATMTADTSSNTAYLQLTSLTSEDTAVYYCARSTVLDYWGHGTTLTVSS
VL: DVLMTQSPASLSVSLGDRATISCRSSQSIVHTNGNTYLEWYLQKPGQSPKLLIYKVSNRFSGVPDRFSGSGSGTDFILKISRVEAEDLGVYYCFQGSHVPPTFGGGTKLEVK
Take B8: the binding result in experiment [1] is “binds”.

For the origin of these results see patent publication US20250188157A1 (UNIVERSITY OF TOKYO, published 2025).
